Results reported in paper PMC9062432.

Target: AphC, extradiol dioxygenase from Rhodococcus jostii RHA1 (Rhodococcus jostii RHA1)
Assay: crystal structure

## AphC, extradiol dioxygenase from Rhodococcus jostii RHA1 (enzyme)
  stoichiometry N: 4
